Reference: the supplement of paper PMC10567573

B1: KRT34 (parent)
chain: YQSYFKTIEELQQKILCAKAENAR
B2: RBBP5 (parent)
chain: TGTSNTTAIKSIEFARKGSCFLIN

Variants of: B1
Assay: protein stability index of a GFP-peptide fusion (GPS, HEK-293T) (PSI 1-6); higher = more stable
Settings: c terminus: a fixed tail appended
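Further: lentivirally expressed fusions sorted by FACS into six bins by GFP to DsRed ratio, PSI derived from sequencing read proportions per bin multiplied by bin number.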

Variant | protein stability index
I15T | 1.57
I15W | 2.2
I15L | 1.95
I15H | 1.87
I15D | 1.88
I15R | 1.66
I15K | 2.71
L11F | 1.4
L11I | 2.13
L11S | 1.2
L11Q | 1.98
L11K | 2.34
L11N | 2.41
L11W | 1.93
L11Y | 2.08
L11R | 1.83
L11V | 1.35
I8F | 2.23
I8Y | 2.52
I8H | 1.62
I8P | 2.24
I8K | 2.47
I8R | 2.09
I8L | 1.98

Variant | protein stability index
I8E | 2.6
I8W | 1.42
Y4I | 2.27
Y4M | 1.48
Y4T | 2.98
Y4R | 2.14
Y4P | 2.19
Y4V | 1.57
Y4F | 1.86
Y4L | 1.93
Y4H | 2.4
Y4E | 1.63
Q12H | 2.34
Q12E | 1.48
Q12A | 1.6
Q12Y | 1.77
Q12K | 2
Q12D | 1.69
K14D | 1.23
K14R | 1.77
K14Q | 2.14
K14E | 2.61
K14T | 1.56
K14L | 2.62

Variant | protein stability index
K14F | 2
A20C | 2.01
A20N | 1.71
A20P | 1.79
A20L | 2.34
A20F | 1.4
A20D | 2.18
A20W | 1.46
R24G | 1.16
R24K | 1.93
R24L | 1.77
R24E | 1.32
R24S | 1.74
R24V | 2.78
R24P | 1.57
R24H | 2.2
R24W | 2.32
R24F | 1.91
R24I | 2.17
R24Y | 2.6
T7N | 2.34
T7P | 1.77
T7E | 2.58
T7F | 1.81

Variant | protein stability index
T7V | 1.72
K6W | 2.18
K6S | 1.74
K6V | 2.83
K6D | 2.01
K6M | 2.1
K6R | 1.82
K6G | 2.09
K6Q | 2.53
K6H | 2.24
E21K | 1.99
E21V | 2.42
E21I | 1.29
E21N | 1.69
E21G | 1.03
E21D | 1.74
E21C | 2.38
E21H | 2.24
E21Y | 1.27
E21S | 1.96
E9A | 1.77
E9Q | 1.9
E9Y | 1.64
E9R | 1.75

Variant | protein stability index
E9C | 1.87
E9N | 2.45
E9D | 2.25
E9T | 1.84
E9K | 2.2
E9F | 1.73
E9H | 2.46
Q2F | 2.53
Q2P | 2.26
Q2W | 2.39
Q2T | 1.59
Q2H | 3.43
Q2S | 2.5
Q2A | 2.1
Q2C | 1.88
Q2Y | 2.04
Q2I | 1.57
A18W | 2.73
A18F | 2.75
A18Y | 2.16
A18H | 1.53
A18C | 2.5
A18V | 1.88
A18T | 2.1

Variant | protein stability index
A18Q | 1.83
A18N | 2.07
Q13G | 1.96
Q13L | 1.46
Q13H | 2.29
Q13S | 1.52
Q13E | 2.2
Q13R | 2.16
Q13K | 1.95
Q13I | 1.5
Q13C | 1.82
Q13D | 2.26
Q13F | 2.05
C17R | 2.42
C17W | 2.94
C17L | 2.6
C17K | 2.51
C17N | 1.88
C17G | 2.32
C17Q | 2.56
E10L | 1.91
E10A | 1.95
E10C | 1.44
E10P | 1.93

Variant | protein stability index
E10H | 1.69
E10T | 1.27
E10V | 2.04
E10Y | 2.74
E10S | 1.83
E10I | 1.96
N22M | 1.59
N22K | 2.22
N22D | 2.54
N22A | 1.69
N22T | 2.4
N22G | 1.36
N22C | 2.04
N22L | 2.26
F5G | 3.23
F5E | 4.08
F5V | 1.9
F5L | 1.81
F5S | 2.73
F5D | 3.68
F5R | 1.6
F5M | 2.62
Y1F | 1.96
Y1I | 1.52

Variant | protein stability index
Y1D | 4.17
Y1R | 2.94
Y1H | 2.56
Y1L | 1.55
Y1Q | 3.45
Y1E | 4.59
Y1V | 2.27
Y1G | 3.95
Y1N | 3.45
L16R | 2.02
L16T | 1.72
L16H | 2.12
L16M | 1.89
L16F | 1.6
L16A | 1.8
L16C | 1.84
L16S | 1.97
L16Q | 1.66
S3V | 1.62
S3N | 2.23
S3G | 1.85
S3F | 1.8
S3E | 1.67
S3Y | 2.13

Variant | protein stability index
S3C | 1.96
A23I | 1.65
A23E | 2.71
A23K | 2.17
A23N | 1.55
A23V | 1.32
A23L | 2.01
A23R | 2.06
A23F | 2.72
A23D | 2.08
A23S | 2.05
K19E | 1.99
K19R | 1.91
K19Y | 1.35
K19P | 2.15
K19T | 1.39
K19G | 1.92
K19W | 2.29

Variants of: B2
Assay: as above
Settings: c terminus: a fixed tail appended

Variant | protein stability index
G18Y | 2.07
G18L | 2.35
G18S | 2.32
G18N | 2.18
G18M | 1.85
G18Q | 2.28
G18P | 2.35
G18T | 1.71
G18W | 1.62
G18K | 2.3
G18V | 3.95
G18R | 2.15
F21Y | 2.56
F21T | 3.5
F21M | 3.52
F21C | 2.44
F21D | 3.83
F21P | 3.13
F21K | 3.48
F21A | 3.36
F21Q | 3.17
F21N | 3.53
F21R | 3.15
F21V | 2.75
F21E | 3.73

Variant | protein stability index
F21I | 2.37
F21G | 3.35
F21S | 3.09
F21L | 2.07
F21H | 2.86
F21W | 2.25
C20W | 1.63
C20F | 1.9
C20K | 2.58
C20S | 2.59
C20Y | 2.12
C20P | 2.74
C20I | 2.23
C20T | 2.56
C20H | 2.16
C20M | 2.01
C20E | 2.98
C20L | 2.25
C20A | 2.6
C20D | 2.6
C20G | 2.49
C20R | 2.55
C20N | 3.03
C20V | 2.09
C20Q | 2.51

Variant | protein stability index
S19H | 2.04
S19F | 1.61
S19V | 2.25
S19R | 2.24
S19Y | 1.26
S19E | 2.33
S19K | 2.92
S19M | 1.59
S19Q | 2.24
S19T | 1.79
S19C | 2.67
S19P | 2.04
S19A | 1.62
S19I | 2.75
S19N | 2.17
S19G | 1.93
S19W | 1.94
S19L | 2.56
S19D | 3.72
L22F | 1.99
L22Y | 2.54
L22W | 1.71
L22S | 3.05
L22P | 3.53
L22R | 2.81

Variant | protein stability index
L22K | 3.21
L22V | 2.28
L22Q | 3.48
L22T | 3.09
L22I | 2.55
L22A | 2.33
L22G | 3.03
L22M | 2.64
L22D | 3.15
L22N | 3.09
L22E | 3.31
L22H | 2.52
L22C | 2.79
I23Y | 2.58
I23A | 2.67
I23P | 2.82
I23N | 2.99
I23V | 2.62
I23T | 3.5
I23R | 3.03
I23E | 3.38
I23S | 3.1
I23L | 2.05
I23W | 2.36
I23C | 2.36

Variant | protein stability index
I23M | 2.49
I23G | 2.73
I23K | 3.62
I23H | 2.79
I23F | 1.98
I23D | 3.02
I23Q | 3.31
N24G | 2.27
N24Y | 1.96
N24P | 3.12
N24K | 2.02
N24A | 1.89
N24W | 2.71
N24C | 2.38
N24Q | 1.79
N24H | 2.35
N24D | 2.85
N24E | 3.01
N24T | 1.76
N24F | 2.74
N24L | 2.22
N24M | 2.16
N24S | 2.04
N24R | 2.09
